Three molecules from paper PMC3033571 (2011) can be followed below.

In assay [1] the target is T1, CaV1.2 IQ domain IQ domain (Homo sapiens, UniProt Q13936, Ca2+). As to the kind of experiment: ITC, 25°C.
Assay [2] addresses T1, CaV1.2 IQ domain IQ domain. As to the kind of experiment: ITC, 15°C. A general note: In ITC the heat of successive injections is recorded.
In assay [3] the target is T1, CaV1.2 IQ domain IQ domain. As to the kind of experiment: competition ITC.

As usually defined, the Kd is the free concentration of one partner at which half of the binding sites on the other are occupied at equilibrium, for simple one-to-one binding.

T1 sequence (Q13936 1665-1685): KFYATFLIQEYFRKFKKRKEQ

B1: CaBP1 C-lobe C-lobe (protein)
chain: ADMIGVKELRDAFREFDTNGDGEISTSELREAMRKLLGHQVGHRDIEEIIRDVDLNGDGRVDFEEFVRMMSR
B1: the Kd was 15 nM in assay [1] and 10.5 nM in assay [2].

B2: CaBP1 N-lobe N-lobe (protein)
chain: not shown
In turn, B2 yielded a Kd in assay [2] of 1100 nM.

B3: CaBP1 16-167 (protein)
chain: ARLQRVLGLGSRREPRSLPAGGPAPRRTAPPPPGHASAGPAAMSSHIAKSESKTSLLKAAAAAASGGSRAPRHGPARDPGLPSRRLPGSCPATPQSSGDPSSRRPLCRPAPREEGARGSQRVLPQAHCRPREALPAAASRPSPSSPLPPARG
B3 returned a dissociation constant (Kd) in assay [3] of 0.288 nM. This lies in the sub-nanomolar range.
